# Laboratory results reported in the nanobody polyreactivity screen of Harvey et al. (2022).
# Test: yeast display, Sf9 membrane polyspecificity reagent, FACS + sequencing; frameworks hold sequencing errors
# Outline: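 Synthetic nanobody libraries on Saccharomyces cerevisiae BJ5465 were galactose-induced for 36–48 hours, stained 1 hour at 4 °C with 10% biotinylated, detergent-solubilized Sf9 membrane reagent and enriched on streptavidin microbeads. FACS then separated cells into low and high (top ~1%) gates by anti-HA (expression) and streptavidin (reagent binding) fluorescence. Genes were colony-PCR amplified, MiSeq 2 × 250 sequenced and CDR-length filtered. A clone's polyreactivity label is that of its gate of origin.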
row,Sequence,polyreactivity (PSR sort gate)
1,QVQLVESGGGLVQAGGSLRLSCAASGIIFNSNAMGWYRQAPGKERELVAAISVSGGSTYYADSVKGRFTISRDNAKNTVYLQMNSLKPEDTAVYYCAAVFYYWSLRSYYWGQGTQVTVSS,high polyreactivity
2,QVQLVESGGGLVQAGGSLRLSCAASGIIFPPYAMGWYRQAPWKEREFVAGITSSGGTYYADSVKGRFTISRDNAKNTVYLQMNSLKPEDTAVYYCAARQGNLRRGVRWFNYWGQGTQVTVSS,high polyreactivity
3,QVQLVESGGGLVQAGGSLRLSCAASGIIFPPYTMGWYRQAPGKERELVAGITGNSGTTYYADSVKGRFTISRDNAKNTVYLQMNSLKPEDTAVYYCAVRDVYHRYWGQGTQVTVSS,high polyreactivity
4,QVQLVESGGGLVQAGGSLRLSCAASGIIFPRNAMGWSREAPGKERELVAAITSGDTTNYADSVKGRFTISRDNAKKTVYLQMNSQKPADTAVYYCAADQFQGNSGFEYWGQGTQVTVSS,low polyreactivity
5,QVQLVESGGGLVQAGGSLRLSCAASGIIFPWYTMGWYRQAPGKERELVAAISSGGRTNYADSVKGRFTISRDNAKNTVYLQMNSLKPEDTAVYYCAAKFYRDRDWGQGTQVTVSS,high polyreactivity
6,QVQLVESGGGLVQAGGSLRLSCAASGIIFPYNTMGWYRQAPGKERELVASIDDGGSTNYADSVKGRFTISRDNAKNTVYLQMNSLKPEDTAVYYCAADPYWFFPHYDSWGQGTQVTVSS,low polyreactivity
7,QVQLVESGGGLVQAGGSLRLSCAASGIIFPYYAMGWYIQAPGKERELVASISSRGSSTYYADSVKGRFTISRDNAKNTVFLQMNSLKPEDTAVYYSAAQNFYRYYWGQGTQVTVSS,high polyreactivity
8,QVQLVESGGGLVQAGGSLRLSCAASGIIFPYYAMGWYRQAPGKERELVAGISSSGGITYADSVKGRFTISRDNAKNTVYLQMNSLKPEDTAVYYCNAEYQWLEYDFWGQGTQVTVSS,low polyreactivity
9,QVQLVESGGGLVQAGGSLRLSCAASGIIFQFYAMGWYRPAPGKERELVAAISRSGGITHYADSVKGRFTISRDNAKNTVYLQMNSLKPEDTAVYYCNAVQPARFVGGFGTGVDYWGQGTQVTVSS,high polyreactivity
10,QVQLVESGGGLVQAGGSLRLSCAASGIIFQPYTMGWYRQAPGKERELVAAISYSGGSTYYADSVKGRFTISRDNAKNTVYLQMNSLKPEDTAVYYCAARRYPYSGTHRGFYYWGQGTQVTVSS,high polyreactivity
11,QVQLVESGGGLVQAGGSLRLSCAASGIIFQRNAMGWYRQAPGKERELVAAISASGGSTNYADSVKGRFTISRDNAKNTVSLQMNSLKPEDTAVYYCAAEDDGDFDYWGQGTQVTVSS,low polyreactivity
12,QVQLVESGGGLVQAGGSLRLSCAASGIIFQRNDIGWYREAPGKERELVANIRDGGITYADSVKGRFTISRDNAKNTVYLQMNSLKPDDTAVYYCALEDTSPGYGDQSSNAAYYYWGQGTQVTVSS,low polyreactivity
13,QVQLVESGGGLVQAGGSLRLSCAASGIIFQTYAMGWYRQAPGKERELVAAISRSGGSTYYADSVKGRFTISRDNAKNTVYLQMNSLKPEDTAVYYCAAYGYHVNWLKGNYWGQGTQVTVSS,high polyreactivity
14,QVQLVESGGGLVQAGGSLRLSCAASGIIFQVYAMGWYRQAPGKERELVAAISDDGSTNYADSVQGRFTISRDNAKNTGYLQMNSLKPEDTAVYYCAKDSWGRLYYRYDYWGQGTQVTVSS,low polyreactivity
15,QVQLVESGGGLVQAGGSLRLSCAASGIIFQYYAMGWYRQAPGKERELVAAITSSGGSTFYADSVKGRFTISRDNSKNTVYLQMNSLKPEDTAVFYCAGVYHRSTYDYWGQGTQVTVSS,high polyreactivity
16,QVQLVESGGGLVQAGGSLRLSCAASGIIFQYYVMGWYRQAPGKERELVATISTRGGSTYYADSVKGRFTISRDNAKNTVYLQMNSLKPEDTAVYYCAAPYGTYAYDYWGQGTQVTVSS,high polyreactivity
17,QVQLVESGGGLVQAGGSLRLSCAASGIIFRGNAMGWYRQAPRKEREFVAAISLRGSRTYYADSVKGRFTISRDNAKNTVYLQMNSLKPEDTAVYYCNARGGPSPFGSDYWGQGTQVTVSS,high polyreactivity
18,QVQLVESGGGLVQAGGSLRLSCAASGIIFRGNAMGWYRQAPRKERELVAAISSAGSTNYADSVKGRFTISRDNAKNTVYLQMNSLKPEDTAVYYCAKGSSKYHVTLRGRGYYWGQGTQVTVSS,low polyreactivity
19,QVQLVESGGGLVQAGGSLRLSCAASGIIFRGNAMGWYRQEPGKESEIVAAISLRGSRTYYADSVKGRFTISRDNAKNTVYLQMNSLKPEDSAVYYCNARGGTSPFGSDYWGQGTQVTVSS,high polyreactivity
20,QVQLVESGGGLVQAGGSLRLSCAASGIIFRGYAMGWYREAPGKERELVAAIRDRGGSTYYADSVKGRFTISRDNAKNTVYLQMNSLKPEDTAVYYCATENRVYRHPGYDYDYWGQGTQVTVSS,low polyreactivity
21,QVQLVESGGGLVQAGGSLRLSCAASGIIFRGYVMGWYRQAPGKERELVAAISRSGGRTYYADSVKGRFTISRDNAKNTVYLQMNSLKPEDTAVYYCNAVRYVLGYSYDYNYWGQGTQVTVSS,high polyreactivity
22,QVQLVESGGGLVQAGGSLRLSCAASGIIFRLNTMGWYRPAPGTERELVAAITSGGSTHYADSVKGRFTISRDNAKNTVYLQRISLNPEDTAVYYCAAGHRAKYWAWHFYYPGDYWGQGTQVTVSS,low polyreactivity

row,Sequence,polyreactivity (PSR sort gate)
1,QVQLVESGGGLVQAGGSLRLSCAASGIIFRLYAMGWYRQAPGKERELVAAITSRGGSTYYADSVKGRFTISRDNAKKTVYLQMNSLKPEDTAVYYCAARPVYSGYDYWGQGTQVTVSS,high polyreactivity
2,QVQLVESGGGLVQAGGSLRLSCAASGIIFRLYGMGWYRQAPGKERELVAGINTGGSTYADSVKGRFTISRDNAKNTVYLQMNSLKPEDTAVYYCATGPYLIYDYWGQGTQVTVSS,low polyreactivity
3,QVQLVESGGGLVQAGGSLRLSCAASGIIFRNYAMGLYRQAPGKEREFVAAISGSGTSTYYADSVKGRFTISRDNAKNTVYLQMNSLKPEDTAVYYCAAEKYSYPYDYEYWGQGTQVTVSS,high polyreactivity
4,QVQLVESGGGLVQAGGSLRLSCAASGIIFRNYAMGWYRQAAGNERAWVAAISWTGDSTYYADSVKGRFTISRDNAKNTVYLQMNSQKPEETAVYYCAAEAYYGLWMDYWGQGTQVTVSS,low polyreactivity
5,QVQLVESGGGLVQAGGSLRLSCAASGIIFRNYAMGWYRQAPGEERELVATIRYRGGRTYADSVKGRFTISRDNAKNTVYLQMNSLKPEDTAVYYCNTYARYAYLTGRMDYWGQGTQVTVSS,high polyreactivity
6,QVQLVESGGGLVQAGGSLRLSCAASGIIFRNYAMGWYRQAPGKERELVAAISWTGDSTYYADSVKGRFTISRDNAKNTVYLQMNSLKPEDTAVDYCAAEAYYGLWMDYWGQGTQVTVSS,low polyreactivity
7,QVQLVESGGGLVQAGGSLRLSCAASGIIFRPNAMGWYRQEPGKERELVAAISRNGVRTYYSDSVKGRFTISRDNAKITVYLQMNSLKPEDTAVYYCNRDYNAAYDWGEGTQVTVSS,high polyreactivity
8,QVQLVESGGGLVQAGGSLRLSCAASGIIFRRYAMGLYRQAPGKERELVAAISSRGGSTYYADSVKGRFTISRDNAKNTVYLQMNCLKPEDTAVYFCAKGFSGTGGSGDFGYWGQGTQETVSS,high polyreactivity
9,QVQLVESGGGLVQAGGSLRLSCAASGIIFRRYAMGWYRQAPGKERELVAAITGSGGSTYYADSVKGRFTISRDNAKNTVYLQMNSLKPEDTAVYYCAAQSLLRFASSRYNSWGQGTQVTVSS,high polyreactivity
10,QVQLVESGGGLVQAGGSLRLSCAASGIIFRSYAMGWYRQAPGKERELVAAISRRGGSTYYADSVKGRFTISRDNAKNTVYLQMNSLKPEDTAVYYCAATVLSSPEPYDYWGQGTQVTVSS,high polyreactivity
11,QVQLVESGGGLVQAGGSLRLSCAASGIIFRSYAMGWYRQAPGKERELVAGISLSGGSTYYADSVKGRFTISRDNAKNTVYLQMNSLKPEDTAVYYCATRNHYFRALRYGYCGQGTQVTVSS,high polyreactivity
12,QVQLVESGGGLVQAGGSLRLSCAASGIIFRSYAMGWYRQAPGKERELVAGISLSGGSTYYADSVKGRFTISRDNAKNTVYLQMNSLKPEDTAVYYCATRNHYFRALRYGYWGQGTQVTVSS,high polyreactivity
13,QVQLVESGGGLVQAGGSLRLSCAASGIIFRSYTMGWYRQAPGKERELVASITRSGGITYYADSVKGRFTISRDNAKNTVYLQMNSLKPEDTAVYYCAARHRYYYQYRSDYWGQGTQVTVSS,high polyreactivity
14,QVQLVESGGGLVQAGGSLRLSCAASGIIFRVYAMGWYRQAPGKERELFATITWSGGSTFYADSLKGRFTISRDNAKNTVYLQLNSLKPEDTAVYYCAKRGYVRSGLGRPYADDYWGQCTQVTVSS,low polyreactivity
15,QVQLVESGGGLVQAGGSLRLSCAASGIIFRWYTMGWYRQAPGKEREVVAAITGRGGSTYYADSVKGRFTISRDNAKNTVYLQMNSLKPEDSAVYYCAAQYSYPTPYRTYEYDYWGQGTQVTVSS,high polyreactivity
16,QVQLVESGGGLVQAGGSLRLSCAASGIIFRWYVMGWYRQSPGKERELVAAITNGGRTYYADSVKGRFTISRDNAKNTVYLQMNSLKPEDTEVYYCAAYFRRKMDYWGQGTQVTVSS,high polyreactivity
17,QVQLVESGGGLVQAGGSLRLSCAASGIIFRYYALGWYRKAPRKERELVAAINWRGGRTYYADSVKGRFTISRDNAKNTVYLQMNSLKPEDTAVYYCAAYIYYPYRNDYWGQGTQVTVSS,high polyreactivity
18,QVQLVESGGGLVQAGGSLRLSCAASGIIFRYYAMGWYRPAPGKERELVAAISSGGSTNYADSVKGRFTISRDNAKNTVYLQMNSLKPEDTAVYYCAADYTYNGLEYDYWGQGTQVTVSS,high polyreactivity
19,QVQLVESGGGLVQAGGSLRLSCAASGIIFRYYAMGWYRQAPGKERELVAAISGTGSTKYADSVKGRFTISRDNAKNTVYLQMNSLKPEDTAVYYCNPRKRYARYGGSGYDYWGQGTQVTVSS,high polyreactivity
20,QVQLVESGGGLVQAGGSLRLSCAASGIIFRYYAMGWYRQAPGKERELVAAISWSTDSTYYADSVKGRFTISRDNAKNTVYLPMNSLKPEDTAVYYCNARPSYYRISPYDYWGQGTQVTVSS,high polyreactivity
21,QVQLVESGGGLVQAGGSLRLSCAASGIIFRYYAMGWYRQAPGKERELVAVITGRGGGTYYADSVKGRFTISRDNAKNTVYLQMNSLKPEDTAVYYCAKDFTGHYPKGFDYWGQGTQVTVSS,low polyreactivity
